Consider one molecule from patent US12391919B2, “Culture medium, coating matrix and method for maturing midbrain dopaminergic progenitor cells” (NUWACELL BIOTECHNOLOGIES CO., LTD., priority 2022, dated 2025).

In the test the test system is imDAPs. Put plainly: imDAP maturation: cell morphology, adhesion and cell yield. It is filed as cell-based, human. Particulars: Example 13; maturation media supplemented with 10 μM Y27632; day 7; FIG. 8A. As to the method:
imDAPs were produced according to the method described in CN201910169525.0, and expanded as described in Example 10. […] MM-H used in Example 11 contained the following components: Neurobasal™ medium, 1% (v/v) Glutamax, 0.5 mM Db-cAMP sodium salt, 200 μM ascorbic acid, 20 ng/ml BDNF, 20 ng/ml GDNF, 1 ng/ml TGF-β3, 10 μM DAPT, HhPLT (0.5%, 1%, 2%). MM-B used in Example 11 contained the following components: Neurobasal, 1% (v/v) Glutamax, 0.5 mM Db-cAMP sodium salt, 200 μM ascorbic acid, 20 ng/ml BDNF, 20 ng/ml GDNF, 1 ng/ml TGF-β3, 10 μM DAPT, 2% (v/v) B27 (50×) (as control). The above HhPLT was produced from hPLT as follows. The hPLT was centrifuged at 3000 g for 30 min at 4° C. to obtain the supernatant, which was heated to 56° C. for 30 min. The suspension was finally cooled down to 4° C. at least 5 min, and spun at 3000 g for 30 min at 4° C. to obtain the HhPLT supernatant. Aliquots were prepared and stored at −80° C. until use. The above Medium was changed every 3rd day. On day 7, the imDAPs at early maturation stage were dissociated enzymatically with 1× TrypLE, centrifuged at 250 g for 5 minutes.
imDAPs were produced according to the method described in CN201910169525.0, and expanded as described in Example 10. […] Medium was changed every 3rd day. On day 7, the imDAPs at early maturation stage were dissociated enzymatically with 1× TrypLE, centrifuged at 250 g for 5 minutes. Cells were collected for RT-qPCR analysis of EN1, LMX1A, FOXA2, NURR1, SOX6 and TH gene expression. The maturation medium used in Example 12 contained the following components: Neurobasal™ medium, 1% (v/v) Glutamax, 1% (v/v) HhPLT, 0.5 mM Db-cAMP sodium salt, 200 μM ascorbic acid, 20 ng/mL BDNF, 20 ng/mL GDNF, 1 ng/mL TGF-β3, 10 μM DAPT.
imDAPs were produced according to the method described in CN201910169525.0, and expanded as described in Example 10. […] Cells were collected and counted by Vi-cell cytometer. The cells were analyzed by RT-qPCR for EN1, LMX1A, FOXA2, NURR1, SOX6 and TH gene expression. […]

B1: VTN: vitronectin, first coating matrix that supports cell adhesion (protein, UniProt P04004 20-478, looked up)
Vitronectin: DQESCKGRCTEGFNVDKKCQCDELCSYYQSCCTDYTAECKPQVTRGDVFTMPEDEYTVYDDGEEKNNATVHEQVGGPSLTSDLQAQSKGNPEQTPVLKPEEEAPAPEVGASKPEGIDSRPETLHPGRPQPPAEEELCSGKPFDAFTDLKNGSLFAFRGQYCYELDEKAVRPGYPKLIRDVWGIEGPIDAAFTRINCQGKTYLFKGSQYWRFEDGVLDPDYPRNISDGFDGIPDNVDAALALPAHSYSGRERVYFFKGKQYWEYQFQHQPSQEECEGSSLSAVFEHFAMMQRDSWEDIFELLFWGRTSAGTRQPQFISRDWHGVPGQVDAAMAGRIYISGMAPRPSLAKKQRFRHRNRKGYRSQRGHSRGRNQNSRRPSRATWLSLFSSEESNLGANNYDDYRMDWLVPATCEPIQSVFFFSGDKYYRVNLRTRRVDTVDPPYPRSIAQYWLGCPAPGHL
In the case of B1, the “cell adhesion and growth” value is listed as “could grow normally”.
